Measured values from US6858210B1, “Therapeutic and diagnostic domain 1 β2GPI polypeptides and methods of using same” (La Jolla Pharmaceutical Co., priority 1998, dated 2005).
Substitutions are numbered along the chain they refer to. Names and notes keep the numbering of the source.

B1: B11: phage clone, domain 1 mutant M42K (protein)
chain: GRTCPKPDDLPFSTVVPLKTFYEPGEEITYSCKPGYVSRGGKRKFICPLTGLWPINTLKCTPRV
B2: A10: phage clone, domain 1 mutant D8G (protein)
chain: B1 chain with D8G, K42M
B3: 2D4: phage clone, domain 1 mutant M42T (protein)
chain: B1 chain with K42T
B4: 2C3: phage clone, domain 1 mutant P54S (protein)
chain: B1 chain with K42M, P54S
B5: 2D12: phage clone, domain 1 mutant F45L (protein)
chain: B1 chain with K42M, F45L
B6: 2D9: phage clone displaying β2GPI domain 1 mutant T3P (protein)
chain: GRPCPKPDDLPFSTVVPLKTFYEPGEEITYSCKPGYVSRGGMRKFICPLTGLWPINTLKCTPRVAEPVESCLAKPHTENSFTNVWKDDKTLDRYANYEGCLWNATGVVVCTGDETQCYGTWVPIGLAIPENEGGGSEGGGSEGGGSEGGGTKPPEYGDTPIPGYTYINPLDGTYPPGTEQNPANPNPSLEESQPLNTFMFQNNRFRNRQGALTVYTGTVTQGTDPVKTYYQYTPVSSKAMYDAYWNGKFRDCAFHSGFNEDPFVCEYQGQSSDLPQPPVNAGGGSGGGSGGGSEGGGSEGGGSEGGGSEGGGSGGGSGSGDFDYEKMANANKGAMTENADENALQSDAKGKLDSVATDYGAAIDGFIGDVSGLANGNGATGDFAGSNSQMAQVGDGDNSPLMNNFRQYLPSLPQSVECRPYVFGAGKPYEFSIDCDKINLFRGVFAFLLYVATFMYVFSTFANILRNKES
B7: SE3: phage clone, domain 1 mutant T20I (protein)
chain: B1 chain with T20I, K42M
B8: SH1: phage clone, domain 1 mutant K33E (protein)
chain: B1 chain with K33E, K42M
B9: SC3: phage clone, domain 1 mutant F45S (protein)
chain: B1 chain with K42M, F45S
B10: 4B12: phage clone, domain 1 mutant T50P (protein)
chain: B1 chain with K42M, T50P
B11: 3F6: phage clone, domain 1 mutant K44E (protein)
chain: B1 chain with K42M, K44E
B12: 3B4: phage clone, domain 1 mutant S38T (protein)
chain: B1 chain with S38T, K42M
B13: 4G1: phage clone, domain 1 mutant S31P (protein)
chain: B1 chain with S31P, K42M

These molecules were tested on rabbit anti-human β2GPI (assay: Micropanning of mutant domain 1 phage, rabbit antibody). Conditions: Table 7A, first (or only) value.
Type: binding
Design: key: 0 (<10 colonies) to 4+ (confluent) semiquantitative colony score
Description: Error prone PCR was carried out as follows. Domain 1 of human β2GPI was amplified by PCR under conditions that enhance the error rate of Taq polymerase. The primers were such that amino acids 1-64 were amplified. A Sfc 1 restriction site was incorporated as part of amino acid 1. At the 3′ end a Sal 1 restriction site was incorporated after amino acid 64. The PCR reaction was done as described by Leung et al. (1989) Technique 1:11, using 0.25 mM MnCl2. The PCR product was digested with Sfc 1 and Sal 1 and cloned into fd-tet-DOG2 that had been digested with Apal 1 and Sal 1. This positions domain 1 at the N-terminus of pill immediately after the pill signal sequence. The ligation reaction was electroporated in E. coli K91. Phage were harvested and titered by standard methods. Resulting phage clones were assayed using a micropanning technique.
Immulon type 2 plates were coated with protein G. Protein G was prepared at 5 μg/mL in 0.1 M NaHCO3 and 100 μL per well was added to the wells of microtitration plates and incubated overnight at 4° C. After discarding excess protein G solution from plates, each well was blocked with 200 μL 2YT for 1 hour at RT with agitation on an oscillating platform. Tris-buffered saline, pH 7.4/0.5% Tween 20 (TBS/Tween), was used with an automatic plate washer to wash the wells 4 times with 200 μL. One hundred μL human β2GPI-dependent antiphospholipid 6626, 6501, 6701, rabbit β2GPI-dependent antiphospholipid, or control normal IgG, diluted to 2.5 μg/mL with 2YT, was added to washed wells. The plate was incubated for 1 hour at room temperature on a rotating platform.
Phage to be tested by micropanning were obtained from the agar plates generated by biopanning. Each clone to be tested was transferred using sterile toothpicks to a separate well of a round-bottom 96-well microtitration plate (Corning, Corning, N.Y.) containing 200 μL 2YT/Tet per well and cultured overnight at 30° C. Following overnight incubation, phage cultures were centrifuged using a microtitration plate holder at 1300×g for 10 minutes at room temperature. Supernatants constituted the source of “neat” phage. The neat phage were diluted 1: 100-1:1000 and 100 μL was added to the plate containing protein G-bound β2GPI-dependent antiphospholipid antibody-6501 and normal IgG prepared as described above. The incubation of dilute phage with aPL antibody or control IgG was carried out for 2 hours at room temperature on a flat rotator. After 9 washes with TBS/Tween in an automated plate washer, the IgG-bound phage was eluted with 20 μL of 0.2 N HCl-glycine/0.1% BSA, pH 2.2. The elution incubation continued for 10 minutes at RT, during which time a new Corning microtitration plate was prepared containing 20 μL of freshly starved E. coli per well and kept chilled. One hundred forty μL of 29 mM Tris was added to the plate containing the phage eluates in order to neutralize the pH, following which 20 μL of phage suspension was transferred from each well to the corresponding well in the plate containing starved E. coli. After a 10 minute incubation at 37° C., 200 μL 2YT was added and incubation carried out an additional 30 minutes at 37° C. Using multichannel pipettors, 8 μL from each well was spotted on a large 2YT/Tet agar plate while retaining the original 8×12 well pattern and orientation from the last microtitration plate. After allowing the spots to dry for 30 minutes, the plate was incubated overnight at 30° C. The following day, colonies were semiquantitatively scored from 0 to 4+, with 0 symbolizing <10 colonies; 1+=10-30; 2+=30 colonies to 70% confluent; 3+=70%-90% confluent; 4+=confluent.
For Table 7A, the rabbit anti-human β2GPI was performed on two separate occasions. Mutations are listed with the original amino acid, the position number, and the identity of the amino acid at that position in the mutant. […] Non-mutated domain 1 have a score of 3+, while domain 5 phage gave a score of −. Silent mutations are not shown. […]

| Molecule | μpan score |
| --- | --- |
| B1 | 3 |
| B2 | 2, 2 |
| B3 | 3 |
| B4 | 3 |
| B5 | 3 |
| B6 | 2 |

Same assay, conditions: Table 7A, second value (second occasion)

| Molecule | μpan score |
| --- | --- |
| B1 | 4 |
| B2 | 2, 2 |

Same assay, conditions: Table 7B, 1st column

| Molecule | Micropan score |
| --- | --- |
| B1 | 4 |
| B7 | 4 |
| B8 | 4 |
| B3 | 4 |
| B9 | 4 |
| B4 | 2 |
| B5 | 4 |
| B6 | 4 |

Same assay, conditions: Table 7B, 2nd column

| Molecule | Micropan score |
| --- | --- |
| B1 | 4 |
| B7 | 4 |
| B8 | 4 |
| B3 | 4 |
| B9 | 4 |
| B4 | 4 |
| B5 | 4 |
| B6 | 4 |

Same assay, conditions: Table 7B, 3rd column

| Molecule | Micropan score |
| --- | --- |
| B1 | 4 |
| B7 | 4 |
| B8 | 4 |
| B3 | 4 |
| B9 | 4 |
| B4 | 4 |
| B5 | 4 |
| B6 | 4 |

Same assay, conditions: Table 7B, 4th column

| Molecule | Micropan score |
| --- | --- |
| B1 | 4 |
| B7 | 4 |
| B8 | 4 |
| B3 | 4 |
| B9 | 4 |
| B4 | 4 |
| B5 | 4 |
| B6 | 4 |

Same assay, conditions: Table 7B, 5th column

| Molecule | Micropan score |
| --- | --- |
| B10 | 4 |
| B11 | 4 |
| B12 | 4 |
| B13 | 4 |

These molecules were tested on human β2GPI-dependent antiphospholipid antibody (assay: Micropanning of mutant domain 1 phage, patient antibodies). Conditions: Table 7A, antibody 6501.
Type: binding

| Molecule | μpan score |
| --- | --- |
| B1 | 3 |
| B2 | 2 |
| B3 | 2 |
| B4 | 1 |
| B5 | 3 |
| B6 | 3 |

Same assay, conditions: Table 7A, antibody 6626

| Molecule | μpan score |
| --- | --- |
| B1 | 3 |
| B2 | 2 |
| B3 | 1 |
| B4 | 1 |
| B5 | 2 |
| B6 | 2 |

Same assay, conditions: Table 7A, antibody 6701

| Molecule | μpan score |
| --- | --- |
| B1 | 3 |
| B2 | 2 |
| B3 | 3 |
| B4 | 1 |
| B5 | 2 |
| B6 | 3 |

Same assay, conditions: Table 7B, antibody 6226

| Molecule | Micropan score |
| --- | --- |
| B1 | 4 |
| B7 | 3 |
| B8 | 4 |
| B3 | 3 |
| B10 | 1 |
| B11 | 0 (0 symbolizing <10 colonies) |
| B9 | 3 |
| B4 | 2 |
| B5 | 4 |
| B12 | 2 |
| B13 | 2 |
| B6 | 4 |

Same assay, conditions: Table 7B, antibody 6501

| Molecule | Micropan score |
| --- | --- |
| B1 | 4 |
| B7 | 3 |
| B8 | 4 |
| B3 | 4 |
| B10 | 1 |
| B11 | 0 (0 symbolizing <10 colonies) |
| B9 | 1 |
| B4 | 2 |
| B5 | 4 |
| B12 | 3 |
| B13 | 2 |
| B6 | 4 |

Same assay, conditions: Table 7B, antibody 6632

| Molecule | Micropan score |
| --- | --- |
| B1 | 4 |
| B7 | 3 |
| B8 | 4 |
| B3 | 4 |
| B10 | 1 |
| B11 | 0 (0 symbolizing <10 colonies) |
| B9 | 4 |
| B4 | 3 |
| B5 | 4 |
| B12 | 2 |
| B13 | 2 |
| B6 | 3 |

Same assay, conditions: Table 7B, antibody 6644

| Molecule | Micropan score |
| --- | --- |
| B1 | 4 |
| B7 | 3 |
| B8 | 4 |
| B3 | 4 |
| B10 | 1 |
| B11 | 1 |
| B9 | 4 |
| B4 | 3 |
| B5 | 4 |
| B12 | 3 |
| B13 | 2 |
| B6 | 4 |

Same assay, conditions: Table 7B, antibody 6701

| Molecule | Micropan score |
| --- | --- |
| B1 | 4 |
| B7 | 3 |
| B8 | 4 |
| B3 | 4 |
| B10 | 1 |
| B11 | 0 (0 symbolizing <10 colonies) |
| B9 | 0 (0 symbolizing <10 colonies) |
| B4 | 2 |
| B5 | 2 |
| B12 | 2 |
| B13 | 2 |
| B6 | 4 |

Same assay, conditions: Table 7B, antibody 7008

| Molecule | Micropan score |
| --- | --- |
| B1 | 4 |
| B7 | 4 |
| B8 | 4 |
| B3 | 4 |
| B10 | 1 |
| B11 | 2 |
| B9 | 4 |
| B4 | 3 |
| B5 | 4 |
| B12 | 2 |
| B13 | 2 |
| B6 | 4 |
